Measurements as given in EP3168228A1 (Spiber Technologies AB, dated 2017).
Residue numbers refer to the chain shown, from its start. Names and notes keep the numbering of the source.

Legend:
[1] = target: wildtype NT (NTwt), N-terminal fragment of Euprosthenops australis major spidroin 1 (MaSp1) (Euprosthenops australis); experiment: tryptophan fluorescence ratio 339/351 nm against pH, 5 µM protein, two-state fit of the monomer-dimer equilibrium
[2] = target: the molecule itself; experiment: tryptophan fluorescence ratio 339/351 nm against pH (self-association, dimerization)
[3] = target: the molecule itself; experiment: SDS-PAGE under non-reducing conditions after thrombin cleavage, self-association
[4] = target: the molecule itself; experiment: gel filtration on Superdex-200, self-association
[5] = target: the molecule itself; experiment: gel filtration in 20 mM Tris, pH 8, self-association

B1: wildtype NT (NTwt), N-terminal fragment of Euprosthenops australis major spidroin 1 (MaSp1) (protein)
chain: SHTTPWTNPGLAENFMNSFMQGLSSMPGFTASQLDDMSTIAQSMVQSIQSLAAQGRTSPNKLQALNMAFASSMAEIAASEEGGGSLSTKTSSIASAMSNAFLQTTGVVNQPFINEITQLVSMFAQAGMNDVSA
Question: Which pKa of dimerization [1] does the source give for B1 here?
Answer: The pKa of dimerization was 6.5 pH.

B2: NTD40K/K65D, charge-reversed double mutant of the NT fragment of Euprosthenops australis MaSp1 (other)
chain: B1 chain with D36K, K61D
notes: also called charge-reversed NT mutant; mutant NT
Question: Does B2 bind [2]?
Answer: Result: no binding (tested: 5 µM protein, pH 5.6-8.0)

B3: Bri2113-231 protein (Bri2-BRICHOS), truncated BRICHOS domain of Bri2 (other)
chain: QTIEENIKIFEEEEVEFISVPVPEFADSDPANIVHDFNKKLTAYLDLNLDKCYVIPLNTSIVMPPRNLLELLINIKAGTYLPQSYLIHEHMVITDRIENIDHLGFFIYRLCHDKETYKL
notes: Released from the NT fusion proteins by thrombin; A 12 kDa band is said to be a truncated form, probably cleaved unspecifically by thrombin; also called Bri2 BRICHOS domain
Question: Does B3 bind [3]?
Answer: Result: binds

B4: NTD40K/K65D-β17 fusion protein (other)
chain: MGHHHHHHMSHTTPWTNPGLAENFMNSFMQGLSSMPGFTASQLDKMSTIAQSMVQSIQSLAAQGRTSPNDLQALNMAFASSMAEIAASEEGGGSLSTKTSSIASAMSNAFLQTTGVVNQPFINEITQLVSMFAQAGMNDVSAGNSLVPRGSMGEQKLISEEDLGMQISMDYEIKFHGDGDNFDLNLDDSGGDLQLQIRGPGGRVHVHIHSSSGKVDFHVNNDGGDVEVKMH
Question: Does B4 bind [4]?
Answer: Result: binds

B5: NTwt-Bri2113-231 fusion protein (other)
chain: MGHHHHHHMSHTTPWTNPGLAENFMNSFMQGLSSMPGFTASQLDDMSTIAQSMVQSIQSLAAQGRTSPNKLQALNMAFASSMAEIAASEEGGGSLSTKTSSIASAMSNAFLQTTGVVNQPFINEITQLVSMFAQAGMNDVSAGNSLVPRGSQTIEENIKIFEEEEVEFISVPVPEFADSDPANIVHDFNKKLTAYLDLNLDKCYVIPLNTSIVMPPRNLLELLINIKAGTYLPQSYLIHEHMVITDRIENIDHLGFFIYRLCHDKETYKL
notes: also called NTwt-Bri2-BRICHOS
Question: Does B5 bind [5]?
Answer: Result: binds

B6: NTD40K/K65D-Bri2113-231 fusion protein (other)
chain: B5 chain with D45K, K70D
notes: also called NTD40K/K65D-Bri2-BRICHOS
Question: Does B6 bind [5]?
Answer: Result: binds
